From a protein production outcome set (Wang et al. 2014) come the findings set out here.

The data set in a line: label from the status in PepcDB records.
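Further: failed if final PepcDB status was selected cloned or expressed and not failed if soluble or beyond.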

“MYIIFALLAFSALILVHELGHFIVAKLNGIYVEEFAIGMGPKLFGVKVGETEYNLRILPFGGFVKMLGEEDESDDSGSLNAKTPIQRILVMGAGAFMNYVLALIIFIGLAMSSGFAENKVASVVPNSPAQEIGIEQGDEFLKIDGNKIHTTDDFRMGLALAKGNPVELEIKRGNDVLTKTVQPILNESGMYQVGISYALVEKPTLLQGIKQGFNETRSLVSQSFIALKTIVTGEANLKTDVGGPVTIIKMSGQAAKAGANTLLWFMAFLSVQLAVFNLLPFPALDGGRIFIELIQMIIRKEIPAKYIEAVNTVGFMLLMGLMVLVTIKDIIFPIL”: the protein production entry is “failed”.
Consider “MYKDEMIQLHQFLVYVLKYLENGYDIKDECEEYFSLNISPHHIHRTKAEHKYAIFVLSSAISEILARKEGNNLPPNVVNGLSELARRSRKEVVKMEARLEAK”, for which the protein production entry was “failed”.
For the sequence “MYKTQKNHIRCDKQTYRLLRQLCHFSKNLYNYALYHIRQHYFKTQEYLRYESVYHLVKESEDYRLLPSQVAQQTLISVIEAFKSFLGLLRAEKEGKVEERVSMPKYLPKDGMYQIVFPKDQFKTEGKKVRLSLGRGFAKEFGVKYLYFDLPATVLGKEIREVRIIPRFNGRWFEIEYVYEDKQQLGIFDLSRYLGVDLGLDNFAAVVDTIGTAFLIEGRFLKSVNRWYNKERARLQSIYSRQGIKCGRKLALVSRKRQHIIDNFLNQAVSLIIKHCLNNQISAVVVGEMKDIKQGIELGVVNNQNFVGIPYDKFKRKLKSKCMYYGIRYVEVDESYTSQRCSRCGHVSKSSRRYRGLYVCKKCGYVVNADINGAINIVAKVAGESVVKQITSSGCVNHPVRIRVA”, the protein production entry is on record as “failed”.
Then “MYKYITILGAAGQIAQKLTATLLTYTDMHITLYGRQLKTRIPPEIIDHERVTVIEGSFQNPGKLEQAVTNAEVVFVGAMESGSDMASIVKALSRKNIRRVIGVSMAGLSGEFPVALEKWTFDNLPISYVQGERQARNVLRESNLNYTILRLTWLYNDPEKTDYELIPEGAQFNDAQVSREAVVKAIFDILHAADETPFHRTSIGVGEPGTHYDKPSFH”, with “not failed”; and “MYLCGSNQSRKETLENKRYNNVEEWANTLSHGAGILLGVIAGYFLLAKAAAGAEPKWAVACVTVYLFGMLSSYVSSTWYHGSRPGKLKELLRKFDHGAIYLHIAGTYTPFTLLVMRHAGGWGWGIFSFVWLSAIVGFILSFKKLKEHSNLETACYIAMGACILVAMKPLMDHLAEMGAGPAFWWLIGGGVSYIIGAVFYSLRKPYMHATFHLFCLGGSIGHIIAIWLIL”, with “failed”.
“MYLPLLMALVVALSSCSNKMGALSSDYFTTTPQVLEAVGGKVPVTINGKFPEKYFKKNAVVEVTPVLKWEGGQVKGQPAVFQGEKVEGNDQTISYKMGGNYTMKTTFDYVPEMAKSELYLEFNAKVGKKTIAIPAVKIADGVISTSELINNTLSSANPALGDDAFQRIIKEAHNANIMFLIQQANIRSSELKTAKEFNKEVANVNDAENKKISNIEISAYASPDGGVKLNTGLAENREGNTTKLINKDLKKAKIEVPVDAKYTAQDWEGFQELVSKSNIQDKELILRVLSMYQDPEQRETEIKNISSVYKTLADEILPQLRRSRLTLNYEIIGKSDEEIANLAATDPKQLNVEEILYAATLTNDPAKKADIYTKASQQFPNDYRAFNNLGKLAYQAGDLDKAQSYVKKAESIKSAPEVNMNLGLIALAKGDKAAAESYLGKAAGAKELNETLGNLYVAQGQYERAVNAFGDTKTNSAALAQILAKDYNKAKNTLAGIATPDAYTDYLMAVLGARTNNTSMLTSSLKSAVAKNPALAKKAATDLEFAKYYTNADFMSIVK”: the protein production result is “failed”.
For “MYPKKQACCPAMVMPYTLHAERTRVEVIPERGGLISRWQWQGHELLYLDRERFANPQFSVRGGIPLLFPICGNLPEDAFHDNGQTYHLKQHGFARDLPWQVLDQRQHVLKLGLQDTPATRQVYPFAFHLTLTYTLAADALAIALEVANPGDIPLPFSFGLHPYFAVADKHQLQFDLPIHAMVDQKTQQPLTFSGTFDWSAAELDWACRPLTGQVARVFDLQQQYCLTLRYDTAFTTLVFWTVQGKPYYCLEPWTAPRNALNTGVDLLHVPPQKHLTLGVEIAVAPL”, the protein production result was “failed”.
To “MYQAVVFFDLDGTLMQDDKTVAASSVRAIQQLRANHVLPVIATGRNVFEVQDVMTTTGIDSIVSANGSYVAYQGQFLSAHELDKELLTDITHFANRQQNALAYYNNAGFALSHRDALTTSNYRALRQTARVAPHFYEHQHINFLLTFDPLNAAQYRQRYRGRLHFVRNNPRALDTMQWGVSKAVGIQDILTKAHLTKVPTYAFGDQLNDIEMFRMIQTPIAMGNGHPQVKQLARYVTADNMHGGIAQGLQHFDLI” belongs “failed”; to “MYQVAICDPIHAKGIQILEAQKDIVLHDYSKCPKKELLEKLTPMDALITRSMTPITSDFLKPLTHLKSIVRAGVGVDNIDLESCSQKGIVVMNIPTANTIAAVELTMAHLINAVRSFPCANDQIKHQRLWKREDWYGTELKNKKLGIIGFGNIGSRVGIRAKAFEMEVLAYDPYIPSSKATDLGVIYTKNFEDILQCDMITIHTPKNKETINMIGAKEIERMKKGVILLNCARGGLYNEDALYEALETKKVRWLGIDVFSKEPGIHNKLLDLPNVYATPHIGANTLESQEEISKQAAQGVMESLRGSSHPHALNLPMQAFDASAKAYLNLAQKLGYFSSQIHKGVCQKIELSLCGEINQFKDALVAFMLVGVLKPVVGDKINYINAPFVAKERGIEIKVSLKESASPYKNMLSLTLNAANGTISVSGTVFEEDILKLTEIDGFHIDIEPKGKMLLFRNTDIPGVIGSVGNAFARHGINIADFRLGRNTQKEALALIIVDEEVSLEVLEELKNIPACLSVHYVVI”, “failed”.
Then “MYRAAIPNLFTLGNLYSGFLSIGYASLGYYKSAAILVLIGMMLDSLDGRVARLLRVDSQMGKELDSLADVVTFGAAPAVLMYYTSFSNYGIIGLYIAGLFPLFGAYRLARFNVTPSSTSMKYFTGVPITAAGGLVAFLTLFSHTIPKIVLITVFVTFAFLMVSRIRIPSLKDVPIPRYSIIITLFLVGIIITMYQTGFGNFSVFLFIAIPLYILYMLSQFIRQRPSKKANKEK”, with “failed”.
To “MYRDRVRLPSLLDKVMSAAEAADLIQDGMTVGMSGFTRAGEAKAVPQALAMRAKERPLRISLMTGASLGNDLDKQLTEAGVLARRMPFQVDSTLRKAINAGEVMFIDQHLSETVEQLRNHQLKLPDIAVIEAAAITEQGHIVPTTSVGNSASFAIFAKQVIVEINLAHSTNLEGLHDIYIPTYRPTRTPIPLTRVDDRIGSTAIPIPPEKIVAIVINDQPDSPSTVLPPDGETQAIANHLIDFFKREVDAGRMSNSLGPLQAGIGSIANAVMCGLIESPFENLTMYSEVLQDSTFDLIDAGKLRFASGSSITLSPRRNADVFGNLERYKDKLVLRPQEISNHPEVVRRLGIIGINTALEFDIYGNVNSTHVGGTKMMNGIGGSGDFARNAHLAIFVTKSIAKGGNISSVVPMVSHVDHTEHDVDILVTEQGLADLRGLAPRERARVIIENCVHPSYQAPLLDYFEAACAKGGHTPHLLREALAWHLNLEERGHMLAG” belongs “not failed”.
With “MYRHDVSNEEKDIAVSVIALTAAFAIANRFRSPYGPFFILAVSFLVAVTAFLMHELAHRYVARSYGGIAYFKMWPLGLLLALITSLLGFIFAAPGAVNIGGIYRRDQIGKTSLAGPAMNIFLGILFYAISLFTLIPVAIAIFRYVAEMNFWFGFFNLLPIPPLDGYKVFSWDLYVYIVSVVIALVFVVLFVF”, the protein production result is “failed”.
Then “MYTENTGKHHRNGLPVWLLPLLVVISFWGVSQNIMVVDASSSVTVLPGNGGTLPLVNQLVIKQNDTALQGITNNAGDRGSLTPKNGAQRVLIHKVKDSDTITSTYGTVGTFHGQEVTAKVTISHIKVHDDSHKAPSGMKQTDGAFQIGPGFSSDTTMSNVAQFNVSYEFYYADTHAAVNIQNAFITLSSLDGPVAGTSTGFEYTAYLGAGKIYTVENSIVKQIANPLGGGQLVMAGQTARDASWPYTSSTAATFGVSGTKLEFIYGTTRVNSGNSWLQPVYNVSTITLGTPAIATPTLSATQSATDKQNRTLTYDLQQKVNVLDQDLMTKYKDWSENITIPANAKYTKGEVVNDAGQALPSTAYQVSYDEKTHQVKWHLTDAGIKSLPFKGETYHFKAQVQFSDDVDDQTKVTATGQTAIDKQTKTSNTVTNTIDNQATITVHHYMTDSTDKVAPDETVKVGYGKAYDVTKQVKTITGYKRNATLDEHTRGTASKTTKEAVMYYDPLPYNIHVNYLLTDGQKLDELDVTGLYGDTYTTEATDFEDLYTVDTDRLPTNAQGTVTEKPTTVNYYYQPTTGQWVDVGNQSSVLVRQDTKHNVRSVSQIYANDSGFTVKYNQDAAQVAIAASDTNGTQDNSLVFDYNSKYTFELSKNETVTFKVDDQGQVTATRVLGAEQTVTTFDKSGQLKTVTTVTNANGTKSQQTNTVDGLKSMVTGEQYDLGLLNGLKVTAQKEINPSQAATTESKTTTDTSQSGSNQSTSTTATDQTETNESTAGSSTNATNASSSVDASSANSQGDTEATSQSGTSASADSKTDSSVASSTSQTTDGKTDGETTNTGDTTTGTTTDSGLGFKSPFTEDQNTSSALGSAQTSSSLNSDTSAAVQALIAEPNSTPVVLGEDASFEEGVPVNDPVFSNDEGVSPNNNPSSAATPLAQATNTRARLTQNGKLLYEGTLKADQGEQNLYVSPDTTVEVDGGDDGDGFYLDTYDGDKGMAYTLGSGYAWAAENNDVTAAPASSATTSSESAASESNTNSSDSSRTASSAVDHSTSSASTSDASQSSHSTSSGESSHPESSSGSSTTSDSADADKQAAARSSQTQSNSVNGSSQAVSSSTVTSQSSVPTKANTKQASSTPTTKANRATVAAATSSTAPRQSRATTASASVPSVTSASAVAASRDKQQSAFKKQHPILNQILPKTNSAVATWLVWLGVGLLLLTVAITMVIKKRGRD”, with “failed”.
For the sequence “MYTITDIAPTDAEFIALIAALDAWQETLYPAESNHLLDLSQLPPQTVIALAIRSPQGEAVGCGAIVLSEEGFGEMKRVYIDPQHRGQQLGEKLLAALEAKARQRDCHTLRLETGIHQHAAIALYTRNGYQTRCAFAPYQPDPLSVFMEKP”, the protein production result is recorded as “failed”.
For “MYTPVSKSTKSNKNRSSLDKILDAKKPVNLLILGTDTGAEGRSVKNYHGLTDLMMFVTVNPSKKQTRVTTIARDSKVNLPDYPEVSPIKLNSAYSLGGVSETIKTLDKYYSVPIDGYVLVNWASTMKIITKMGGVDVISPLTFDNMGYSFKKGQMYHISGKKALAFVQLRHGDPRQDYGRQERERLVMMAAIKKSVSYKTILNSSFMQSLGDSMQTDLSLNDMIKLAMNYQGVTDNVKSDYAQGKSSSVNNQRFGNMEVEIMSTKERQRISNNIRQTLGIKNVDVYKEDNLEHHHHHH”, the protein production result was “not failed”.
Consider “MYTYDSDKTQDGEENLKCSLEKLAKKIIQNAGDTNGNNSTPNSNDDFAQVFGRERPGRVRCVGLGPTPSSFIQNRTTTTLSKEQEVLSLNNRVRELEDKLVKMSDLEDKVDKMNEVIYISTCRRQQQLHYMTSTMDRRRWLQVEGNDFK”, for which the protein production result is “failed”.
As to “MYVFTIGYFTIPANLFSLITSRYSAERKNVGGIVIINLIAGISSSLVFALLVPYYISLTKLDVPIYFYSAISLIILTYLLTVTNSIAQGRTPKIVGISALIFQVLRLVSGIIFMFIFNLSILAVILAYSIGYLAQVLFNLFFIRANLKIDFKVAFSAVRKAVVYIANYIQYILEASIVWITLGIVNSDLVVAYFESAIIVSNIQIGHKQYIQGLWLS”, the protein production entry was “failed”.
Then “MYYNIALAYTHLDIHHLAIHFVNMALEGFRSEYKFRNIINCQILIAVSYTEKGQYEEALKMYESILREATSFADKDVLLAITLSNMGSIYYKKGKYQQAKKYYLDSLQLQKQIDLNYLDTIYEMALVCIKLEELEEARTLIDKGIDAAKQEERFNAKLYLLLMLRYKYFEEAKDYKAFLENEAIPLYKSAGNKIELKKVYVELAEHFSSLSRFEESNRYYRLVIDLMNDNKEE”, with “failed”.
